This is an account of results in paper PMC10477244.

Data set [1] concerns the target T1, SARS-CoV-2 spike RBD (BEI NR-53800) (SARS-CoV-2 Wuhan-Hu-1, UniProt P0DTC2 319-541). Kind of data set: fluorescence binding, carbon-dot aptamer on Ni-NTA@RBD.
Data set [2] concerns the target T1, SARS-CoV-2 spike RBD (BEI NR-53800). Kind of data set: ELISA-type bead assay (SA-HRP/TMB); 0.3 uM aptamer.
The target is the same in data set [3]. As to the kind of experiment: ELISA-type bead assay (SA-HRP/TMB).

B1: aptamer R (Apt@R2) (ssDNA)
DNA: GGTATTGAGGGTCGCATCGTTACTGGACCAAACAGCACAAAGGACGCCCATAAACCCGGATGGCTCTAACTCTCCTCT
B1: the Kd in data set [1] was 125 nM. This counts as sub-micromolar.

B2: aptamer S (Apt@S2) (ssDNA)
DNA: GGTATTGAGGGTCGCATCGAAACAGGGCGTGATACGACGCGACGGCGTACTGTGGTGGGATGGCTCTAACTCTCCTCT
As for B2, the binding result in data set [2] is listed as “binds”.

B3: aptamer W (Apt@W2) (ssDNA)
DNA: GGTATTGAGGGTCGCATCGACACCGGGAGTGATACGTCGCGAGCACGTACTGTGTTGGGATGGCTCTAACTCTCCTCT
Take B3: the binding result in data set [3] is recorded as “binds”.

B4: aptamer U (Apt@U2) (ssDNA)
DNA: GGTATTGAGGGTCGCATCGTAATAGCGCATGTTGTGAGGCGGCGGAGTCATGTCGTGGGATGGCTCTAACTCTCCTCT
As for B4, the binding result in data set [3] was “binds”.

B5: aptamer T (Apt@T2) (ssDNA)
DNA: GGTATTGAGGGTCGCATCGTAATAGCGCATGTTGTGAGGCAGGCGCGAATCAGCTCGTGAGATGGCTCTAACTCTCCTCT
As for B5, the binding result in data set [2] is “binds”.
